Values joined by “and” are separate entries in the source; they are usually repeats but may differ in a detail not shown here. Identical values can stand only once.
Columns and labels:
Conditions in all cases: remark: other sources report otherwise
[1] = molecular target: T1, full-length USP25 (USP25 1-1055) (human), Q9UHP3; assay: SEC-MALS; tetramer to dimers; 20 µM USP25fl with 60 µM VSM, 45 min incubation at 4 °C; Superose 6 10/300 GL; 20 mM HEPES pH 8.0, 150 mM NaCl, 1 mM TCEP
T1 chain: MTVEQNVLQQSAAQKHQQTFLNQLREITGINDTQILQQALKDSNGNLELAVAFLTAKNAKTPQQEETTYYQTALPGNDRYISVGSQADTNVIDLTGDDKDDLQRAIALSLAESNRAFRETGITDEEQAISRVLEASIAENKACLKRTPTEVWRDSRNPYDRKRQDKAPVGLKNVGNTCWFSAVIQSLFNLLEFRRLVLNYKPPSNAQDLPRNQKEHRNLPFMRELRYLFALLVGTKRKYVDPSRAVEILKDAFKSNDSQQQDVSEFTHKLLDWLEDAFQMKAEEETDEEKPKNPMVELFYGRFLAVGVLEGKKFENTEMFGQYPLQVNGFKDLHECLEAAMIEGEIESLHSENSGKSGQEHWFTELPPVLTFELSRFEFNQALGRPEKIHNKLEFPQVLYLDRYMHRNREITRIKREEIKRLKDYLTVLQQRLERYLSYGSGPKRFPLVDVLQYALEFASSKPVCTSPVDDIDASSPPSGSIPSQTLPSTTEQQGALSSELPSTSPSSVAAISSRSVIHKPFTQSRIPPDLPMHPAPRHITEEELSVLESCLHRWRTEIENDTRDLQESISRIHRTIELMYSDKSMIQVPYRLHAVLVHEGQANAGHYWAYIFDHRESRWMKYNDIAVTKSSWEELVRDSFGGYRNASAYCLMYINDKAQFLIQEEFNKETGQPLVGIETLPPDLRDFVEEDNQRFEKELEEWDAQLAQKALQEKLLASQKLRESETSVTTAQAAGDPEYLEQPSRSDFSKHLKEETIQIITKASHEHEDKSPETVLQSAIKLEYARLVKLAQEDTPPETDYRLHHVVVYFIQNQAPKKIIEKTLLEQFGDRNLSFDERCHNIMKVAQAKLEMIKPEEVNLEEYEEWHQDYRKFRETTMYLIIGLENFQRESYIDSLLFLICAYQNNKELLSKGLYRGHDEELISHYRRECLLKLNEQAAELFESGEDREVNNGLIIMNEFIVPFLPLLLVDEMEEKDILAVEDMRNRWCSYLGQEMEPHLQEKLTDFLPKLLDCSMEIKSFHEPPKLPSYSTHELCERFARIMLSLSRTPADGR

[2] = molecular target: T1, full-length USP25 (USP25 1-1055) …; assay: SEC-MALS; tetramer to dimers; 10 µM USP25fl with DMSO control, 45 min incubation at 4 °C; Superose 6 10/300 GL; 20 mM HEPES pH 8.0, 150 mM NaCl, 1 mM TCEP
[3] = molecular target: T1, full-length USP25 (USP25 1-1055) …; assay: SEC-MALS; tetramer to dimers; 20 µM USP25fl with 60 µM AZ1, 45 min incubation at 4 °C; Superose 6 10/300 GL; 20 mM HEPES pH 8.0, 150 mM NaCl, 1 mM TCEP
[4] = molecular target: T1, full-length USP25 (USP25 1-1055) …; assay: SEC-MALS; tetramer to dimers; 10 µM USP25fl with 5, 10 or 20 µM racemic FT206, 45 min incubation at 4 °C; Superose 6 10/300 GL; 20 mM HEPES pH 8.0, 150 mM NaCl, 1 mM TCEP
[5] = molecular target: T1, full-length USP25 (USP25 1-1055) …; assay: SEC-MALS; tetramer to dimers; 20 µM USP25fl with DMSO control, 45 min incubation at 4 °C; Superose 6 10/300 GL; 20 mM HEPES pH 8.0, 150 mM NaCl, 1 mM TCEP
[6] = molecular target: T1, full-length USP25 (USP25 1-1055) …; assay: SEC-MALS; tetramer to dimers; 10 µM USP25fl with 5, 10 or 20 µM AZ1, 45 min incubation at 4 °C; Superose 6 10/300 GL; 20 mM HEPES pH 8.0, 150 mM NaCl, 1 mM TCEP
[7] = molecular target: T1, full-length USP25 (USP25 1-1055) …; assay: SEC-MALS; tetramer to dimers; 20 µM USP25fl with 60 µM racemic FT206, 45 min incubation at 4 °C; Superose 6 10/300 GL; 20 mM HEPES pH 8.0, 150 mM NaCl, 1 mM TCEP

percent dimers (with 60 µM VSM) [1]: 75%
percent dimers [2]: 25%
percent dimers (DMSO control of the AZ1 series) [2]: 23%
percent dimers (DMSO control of the FT206 series) [2]: 28%
percent tetramers [2]: 75%
stoichiometry N [2]: 4 and 2
percent dimers (with 60 µM AZ1) [3]: 80.8%
percent dimers (with 10 µM FT206) [4]: 50%
percent dimers (with 20 µM FT206) [4]: 76%
percent dimers (DMSO control) [5]: 26.2%
percent dimers (with 20 µM AZ1) [6]: 46%
percent dimers (with 60 µM FT206) [7]: 77.7%
B1: full-length USP25 (USP25 1-1055), Q9UHP3 1-1055 (enzyme)
chain: T1 chain

Source: paper PMC11239673, “Structural basis for the bi-specificity of USP25 and USP28 inhibitors” (EMBO Reports, 2024)
